# Assay results taken from patent US20140057807A1.
# Target: human small ubiquitin-like modifier 1 (human) (UniProt P63165)
# Assay: SPR
Binder,Kd,fold discrimination in affinity (ySUMO over hSUMOs)
ySMB-1 (designed binder) VSSVPTKLEVVAATPTSLLISWDASSSSVSYYRITYGETGGNSPVQEFTVPGSSSTATISGLSPGVDYTITVYAYYSYYDLYYSYSPSSINYRT,54000 nM,> 600 fold

# Target: human small ubiquitin-like modifier 1 (human) (UniProt P63165)
# Assay: SPR (monobody on the chip via His-tag, target flowed); estimated Kd [Continued]
row,Binder,Kd
1,SEQ ID NO 87 (designed binder) VSSVPTKLEVVAATPTSLLISWDASSSSVSHYHITYGETGGNSPVQEFTVPGSSSTATISGLSPGVDYTITVYAFYSDDDLYFAFSPSSINYRT,652 nM
2,SEQ ID NO 92 (designed binder) VSSVPTKLEVVAATPTSLLISWDASSSSVSHYEITYGETGGNSPVQEFTVPGSSSTATISGLSPGVDYTITVTAYDSYYDIYIAYSPSSINYRT,2800 nM
3,SEQ ID NO 95 (designed binder) VSSVPTKLEVVAATPTSLLISWDASSSSVSHYAITYGETGGNSPVQEFTVPGSSSTATISGLSPGVDYTITVFAYYSYDDIYYAYSPSSINYRT,738 nM
4,SEQ ID NO 96 (designed binder) VSSVPTKLEVVAATPTSLLISWDASSSSVSHYDITYGETGGNSPVQEFTVPGSSSTATISGLSPGVDYTITVHAYYSYDDIYVAISPSSINYRT,2200 nM
5,SEQ ID NO 94 (designed binder) VSSVPTKLEVVAATPTSLLISWDASSSSVSHYAITYGETGGNSPVQEFTVPGSSSTATISGLSPGVDYTITVYAYYSYDDLYVSDSPSSINYRT,3600 nM
6,SEQ ID NO 91 (designed binder) VSSVPTKLEVVAATPTSLLISWDASSSSVSHYEITYGETGGNSPVQEFTVPGSSSTATISGLSPGVDYTITVAAYHSYHDIFYAVSPSSINYRT,284 nM
7,SEQ ID NO 89 (designed binder) VSSVPTKLEVVAATPTSLLISWDASSSSVSHYAITYGETGGNSPVQEFTVPGSSSTATISGLSPGVDYTITVYAYHSYDDIFLADSPSSINYRT,519 nM
8,SEQ ID NO 88 (designed binder) VSSVPTKLEVVAATPTSLLISWDASSSSVSHYGITYGETGGNSPVQEFTVPGSSSTATISGLSPGVDYTITVYAYHSYDDIYYALSPSSINYRT,290 nM
9,SEQ ID NO 90 (designed binder) VSSVPTKLEVVAATPTSLLISWDASSSSVSHYEITYGETGGNSPVQEFTVPGSSSTATISGLSPGVDYTITVYAYYSHEDIFYAVSPSSINYRT,145 nM
10,SEQ ID NO 93 (designed binder) VSSVPTKLEVVAATPTSLLISWDASSSSVSYYEITYGETGGNSPVQEFTVPGSSSTATISGLSPGVDYTITVIAFYSHDDIYISDSPSSINYRT,2500 nM

# Target: human small ubiquitin-like modifier 1 (human) (UniProt P63165)
# Assay: SPR (Biacore 2000), monobody immobilised via His-tag on NTA surface, hSUMO1 flowed over it
row,Binder,Kd
1,hS1MB-7 (designed binder) VSSVPTKLEVVAATPTSLLISWDASSSSVSYYEITYGETGGNSPVQEFTVPGSSSTATISGLSPGVDYTITVIAFYSHDDIYISDSPSSINYRT,2500 nM
2,hS1MB-3 (designed binder) VSSVPTKLEVVAATPTSLLISWDASSSSVSHYAITYGETGGNSPVQEFTVPGSSSTATISGLSPGVDYTITVYAYHSYDDIFLADSPSSINYRT,519 nM

# Target: human small ubiquitin-like modifier 1 (human) (UniProt P63165)
# Assay: ratio of the apparent affinity for hSUMO1 to that for ySUMO in the titration phage ELISA of FIGS. 25A and 26A; group Low Specificity (0-10)
row,Binder,Specificity Factor
1,hS1MB-12 (designed binder) VSSVPTKLEVVAATPTSLLISWDASSSSVSYYEITYGETGGNSPVQEFTVPGSSSTATISGLSPGVDYTITVFAYHSDDDLYYAFSPSSINYRT,4.4
2,hS1MB-21 (designed binder) VSSVPTKLEVVAATPTSLLISWDASSSSVSHYGITYGETGGNSPVQEFTVPGSSSTATISGLSPGVDYTITVYAYYSYHDIFYALSPSSINYRT,0.7
3,hS1MB-22 (designed binder) VSSVPTKLEVVAATPTSLLISWDASSSSVSHYAITYGETGGNSPVQEFTVPGSSSTATISGLSPGVDYTITVYAFYSYYDIFYSDSPSSINYRT,0.6
4,hS1MB-13 (designed binder) VSSVPTKLEVVAATPTSLLISWDASSSSVSYYAITYGETGGNSPVQEFTVPGSSSTATISGLSPGVDYTITVYAYHSYDDIYFAFSPSSINYRT,1.4
5,hS1MB-15 (designed binder) VSSVPTKLEVVAATPTSLLISWDASSSSVSYYDITYGETGGNSPVQEFTVPGSSSTATISGLSPGVDYTITVYAYYSYDDIYFADSPSSINYRT,2.9
6,hS1MB-14 (designed binder) VSSVPTKLEVVAATPTSLLISWDASSSSVSHYHITYGETGGNSPVQEFTVPGSSSTATISGLSPGVDYTITVYAYYSYNDIFFADSPSSINYRT,2.6
7,hS1MB-19 (designed binder) VSSVPTKLEVVAATPTSLLISWDASSSSVSHYGITYGETGGNSPVQEFTVPGSSSTATISGLSPGVDYTITVYAYYSYDDIFVAVSPSSINYRT,8

# Target: human small ubiquitin-like modifier 1 (human) (UniProt P63165)
# Assay: ratio of the apparent affinity for hSUMO1 to that for ySUMO in the titration phage ELISA of FIGS. 25A and 26A; group High Specificity (>100)
row,Binder,Specificity Factor
1,hS1MB-18 (designed binder) VSSVPTKLEVVAATPTSLLISWDASSSSVSYYEITYGETGGNSPVQEFTVPGSSSTATISGLSPGVDYTITVFAYDSVEDIYVSYSPSSINYRT,> 100
2,hS1MB-20 (designed binder) VSSVPTKLEVVAATPTSLLISWDASSSSVSHYSITYGETGGNSPVQEFTVPGSSSTATISGLSPGVDYTITVYAYDSIEDIYIADSPSSINYRT,> 100
3,hS1MB-7 (designed binder) VSSVPTKLEVVAATPTSLLISWDASSSSVSYYEITYGETGGNSPVQEFTVPGSSSTATISGLSPGVDYTITVIAFYSHDDIYISDSPSSINYRT,> 100
4,hS1MB-16 (designed binder) VSSVPTKLEVVAATPTSLLISWDASSSSVSHYDITYGETGGNSPVQEFTVPGSSSTATISGLSPGVDYTITVYAYNSHDDIFIAYSPSSINYRT,> 100
5,hS1MB-17 (designed binder) VSSVPTKLEVVAATPTSLLISWDASSSSVSYYEITYGETGGNSPVQEFTVPGSSSTATISGLSPGVDYTITVSAYNSYDDIYYAVSPSSINYRT,> 100

# Target: human small ubiquitin-like modifier 1 (human) (UniProt P63165)
# Assay: ratio of the apparent affinity for hSUMO1 to that for ySUMO in the titration phage ELISA of FIGS. 25A and 26A; group Moderate Specificity (10-100)
row,Binder,Specificity Factor
1,hS1MB-11 (designed binder) VSSVPTKLEVVAATPTSLLISWDASSSSVSNYAITYGETGGNSPVQEFTVPGSSSTATISGLSPGVDYTITVYAYYSYDDIFVADSPSSINYRT,13.1
2,hS1MB-3 (designed binder) VSSVPTKLEVVAATPTSLLISWDASSSSVSHYAITYGETGGNSPVQEFTVPGSSSTATISGLSPGVDYTITVYAYHSYDDIFLADSPSSINYRT,12.3
3,hS1MB-23 (designed binder) VSSVPTKLEVVAATPTSLLISWDASSSSVSHYEITYGETGGNSPVQEFTVPGSSSTATISGLSPGVDYTITVYAYYSHDDIFYAFSPSSINYRT,52.5
